Test results: publication PMC8556265

Target: Lsi1_(cryst) (rice Low silicon rice 1, ΔN44/ΔC24/K50R/C66A/T93V/C139A/K232R/T253V/K264R) (rice (Oryza sativa cv. Nipponbare))
Assay: crystal structure; X-ray, 1.8 Å; sitting drop vapour diffusion at 7 °C, 39-50% PEG 400, 100 mM Gly-NaOH pH 9.5, 1% OG, 0.1% CHS; space group P2_(1), two tetramers built

Lsi1_(cryst) (rice Low silicon rice 1, ΔN44/ΔC24/K50R/C66A/T93V/C139A/K232R/T253V/K264R) (domain or fragment)
stoichiometry N: 4
